From patent publication US20210069338A1

What was measured:
[1] = molecular target: Ac-PYY(PEG3-Cys-4Abu-NH2) / Ac-IK(PEG3-Cys-4Abu-NH2)-Pqa-…-MeArg-Y-NH2; experiment: mass spectrometry, non-haptenylated peptide 2.1:1 to antibody
[2] = molecular target: Ac-PYY(PEG3-Cys-4Abu-Dig) / Ac-IK(PEG3-Cys-4Abu-Dig)-Pqa-…-MeArg-Y-NH2; experiment: mass spectrometry of the covalent disulfide conjugate, 2:1 peptide to antibody, no redox agents
[3] = molecular target: PEG3-PYY(PEG3-Cys-4Abu-Dig) / PEG3-IK(PEG3-Cys-4Abu-Dig)-Pqa-…-MeArg-Y-NH2; experiment: mass spectrometry of the covalent disulfide conjugate, 2:1 peptide to antibody, 1 mM GSH / 5 mM GSSG
[4] = molecular target: Ac-PYY(PEG3-Cys-PEG2-5-Fluo) / Ac-IK(PEG3-Cys-PEG2-5-Fluo)-Pqa-…-MeArg-Y-NH2; experiment: mass spectrometry of the covalent disulfide conjugate, 2.5:1 peptide to antibody, no redox agents
[5] = molecular target: helicar motif amino acid sequence cysteine variant 2, …(5-Fluo)-OH x TFA; experiment: covalent disulfide coupling, 2.5 molar excess of peptide

B1: humanized anti-digoxigenin antibody VH52bC (antibody, from a related filing, V domains shown)
VH: QVQLVESGGGLVKPGGSLRLSCAASGFTFSDYAMSWIRQAPGKGLEWVSSINICATYIYYADSVKGRFTISRDNAKNSLYLQMNSLRAEDTAVYYCARPGSPYEYDKAYYSMAYWGQGTTVTVSS
VL: DIQMTQSPSSLSASVGDRVTITCRASQDIKNYLNWYQQKPGKAPKLLIYYSSTLLSGVPSRFSGSGSGTDFTLTISSLQPEDFATYYCQQSITLPPTFGCGTKVEIK
- % of detected species = antibody coupled to 1 peptide molecule [1]: 51%
- % of detected species = antibody coupled to 2 peptide molecules [1]: 17%
- % of detected species = uncoupled antibody [1]: 32%
- % of detected species = antibody coupled to 1 peptide molecule [2]: 40%
- % of detected species = antibody coupled to 2 peptide molecules [2]: 7.4%
- % of detected species = uncoupled antibody [2]: 52%
- % of detected species = antibody coupled to 1 peptide molecule [3]: 46%
- % of detected species = antibody coupled to 2 peptide molecules [3]: 43%
- % of detected species = uncoupled antibody [3]: 11%

B2: anti-fluorescein antibody VH52bC (antibody, V domains shown)
VH: GVKLDETGGGLVQPGGAMKLSCVTSGFTFGHYWMNWVRQSPEKGLEWVAQFRNCPYNYETYYSDSVKGRFTISRDDSKSSVYLQMNNLRVEDTGIYYCTGASYGMEYLGQGTSVTVSS
VL: DVVMTQTPLSLPVSLGDQASISCRSSQSLVHSNGNTYLRWYLQKPGQSPKVLIYKVSNRVSGVPDRFSGSGSGTDFTLKINRVEAEDLGVYFCSQSTHVPWTFGGGTKLEIK
- % of detected species = antibody coupled to 1 peptide molecule [4]: 5%
- % of detected species = antibody coupled to 2 peptide molecules [4]: 95%

B3: anti-fluorescein antibody VH28C (antibody, from a related filing, V domains shown, part only)
VH: GVKLDETGGGLVQPGGAMKLSCVTSGFCFGHYWMNWVRQSPEKGLEWVAQFRNKPYNYETYYSDSVKGRFTISRDDSKSSVYLQMNNLRVEDTGIYYCTGASYGMEYLGQGTSVTVSS
VL: DVVMTQTPLSLPVSLGDQASISCRSSQSLVHSNGNTYLRWYLQKPGQSPKVLIYKVSNRVSGVPDRFSGSGSGTDFTLKINRVEAEDLGVYFCSQSTHVPWTFGGGTKLEIK
- % of detected species = antibody coupled to 2 peptide molecules [4]: 100%

B4: humanized anti-digoxigenin antibody (antibody, from a related filing, V domains shown)
VH: QVQLVESGGGLVKPGGSLRLSCAASGFTFSDYAMSWIRQAPGKGLEWVSSINIGATYIYYADSVKGRFTISRDNAKNSLYLQMNSLRAEDTAVYYCARPGSPYEYDKAYYSMAYWGQGTTVTVSS
VL: DIQMTQSPSSLSASVGDRVTITCRASQDIKNYLNWYQQKPGKAPKLLIYYSSTLLSGVPSRFSGSGSGTDFTLTISSLQPEDFATYYCQQSITLPPTFGGGTKVEIK
- % of detected species = uncoupled antibody [1]: 100%

B5: anti-helicar motif amino acid sequence antibody (0155), light chain variable domain N55C variant (antibody, V domains shown)
V domain 1: QAVVTQEPSLTVSPGGTVTLTCGSSTGAVTTSNYASWVQQKPGQAFTGLIGGTNNRAPWTPARFSGSLLGGKAALTLSGAQPEDEAEYYCALWYSNHWVFGGGTKLTVL
V domain 2: DAVVTQESALTTSPGETVTLTCRSSTGAVTTSNYASWVQEKPDHLFTGLIGGTNCRAPGVPARFSGSLIGDKAALTITGAQTEDEAIYFCALWYSNHWVFGGGTKLTVL
- % of antibody covalently conjugated to one helicar motif amino acid sequence [5]: 40%
- % of antibody covalently conjugated to two helicar motif amino acid sequences [5]: 43%
- % of antibody not conjugated [5]: 17%
